Results published in the supplement of paper PMC10567573.
± gives the standard deviation.

Assay: protein stability index of a GFP-peptide fusion (GPS, HEK-293T) (PSI 1-6); higher = more stable
Details: c terminus: a fixed tail appended
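Note: 24-mer peptide tiles fused after GFP, lentivirally expressed, FACS-sorted into six equal bins by GFP/DsRed ratio, decoded by Illumina sequencing, PSI is the read-weighted mean bin number.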

LDFLQEVTRQPRNLQDLCRIKIRQ [ASB7]
protein stability index (treatment: DMSO): 3.35 ± 0.16
protein stability index (treatment: MLN4924 1 uM, 8 h): 3.57 ± 0.3

SLCCCCRWCCCCGERETRTPEELT [CLCN6]
protein stability index (treatment: DMSO): 3.66 ± 0.41
protein stability index (treatment: MLN4924 1 uM, 8 h): 3.88 ± 0.22

LLLERAAAGSPRSPGPLPGARGLH [ISL2]
protein stability index (treatment: DMSO): 2.8 ± 0.15
protein stability index (treatment: MLN4924 1 uM, 8 h): 2.97 ± 0.049

QHNLRYSLENTLTESEARYSSQLS [KRT33B]
protein stability index (treatment: DMSO): 4.11 ± 0.27
protein stability index (treatment: MLN4924 1 uM, 8 h): 4.11 ± 0.21

TVANDVMLRTGLGVIRMWADEGSR [NETO1]
protein stability index (treatment: DMSO): 2.61 ± 0.11
protein stability index (treatment: MLN4924 1 uM, 8 h): 2.77 ± 0.21

QCANKVLQHMKAVQADQERERQRR [LRRC59]
protein stability index (treatment: DMSO): 3.93 ± 0.4
protein stability index (treatment: MLN4924 1 uM, 8 h): 4.17 ± 0.18

DVAISANIADIEEKRGFTSHFVFV [NCF4]
protein stability index (treatment: DMSO): 2.23 ± 0.6
protein stability index (treatment: MLN4924 1 uM, 8 h): 2.55 ± 0.47

DREEEAIHHLVLTASDGGDPLRSG [PCDHGA10]
protein stability index (treatment: DMSO): 5.02 ± 0.2
protein stability index (treatment: MLN4924 1 uM, 8 h): 5.08 ± 0.11

SYIGLPYADHNYGARPPPTPPASP [KMT2E]
protein stability index (treatment: DMSO): 4.66 ± 0.32
protein stability index (treatment: MLN4924 1 uM, 8 h): 4.73 ± 0.24

INKEELEGNSMRCGRKLAKDGEYC [GMCL1]
protein stability index (treatment: DMSO): 4.04 ± 0.36
protein stability index (treatment: MLN4924 1 uM, 8 h): 4.15 ± 0.49

HESVCKYYLCGFCPAELFTNTRSD [LUC7L3]
protein stability index (treatment: DMSO): 2.17 ± 0.33
protein stability index (treatment: MLN4924 1 uM, 8 h): 2.54 ± 0.29

LENTYRDFWLMVWEQKVLVIVMTT [PTPN9]
protein stability index (treatment: DMSO): 2.36 ± 0.7
protein stability index (treatment: MLN4924 1 uM, 8 h): 2.59 ± 0.6

IEVFDPDANTWRLYGGMNYRRLGG [KLHL20]
protein stability index (treatment: DMSO): 2.38 ± 0.45
protein stability index (treatment: MLN4924 1 uM, 8 h): 2.17 ± 0.26

EVQGDQQAWFGFAGTPGYLSPEVL [CAMK2B]
protein stability index (treatment: DMSO): 3.07 ± 0.35
protein stability index (treatment: MLN4924 1 uM, 8 h): 3.14 ± 0.21

PMNRRNILVMKHNYSQDAADACDI [NETO1]
protein stability index (treatment: DMSO): 3.59 ± 0.11
protein stability index (treatment: MLN4924 1 uM, 8 h): 3.8 ± 0.27

EMEEGVKESLCAKEEKCQGKGDDS [KCNA4]
protein stability index (treatment: DMSO): 5.62 ± 0.19
protein stability index (treatment: MLN4924 1 uM, 8 h): 5.57 ± 0.33

ITGLPLDNPSVLSGPMQAALQAAA [SMG5]
protein stability index (treatment: DMSO): 3.08 ± 0.2
protein stability index (treatment: MLN4924 1 uM, 8 h): 3.11 ± 0.082

CPEVKLKTTGLEEAAEAETAKDNG [SRPK2]
protein stability index (treatment: DMSO): 5.5 ± 0.27
protein stability index (treatment: MLN4924 1 uM, 8 h): 5.49 ± 0.26

GLVDFRDVALALAALDGGRSLEEL [LPCAT4]
protein stability index (treatment: DMSO): 2.51 ± 0.34
protein stability index (treatment: MLN4924 1 uM, 8 h): 3.17 ± 0.33

NVPSSSLPAQPNRKPGMSSTARRS [CHMP4C]
protein stability index (treatment: DMSO): 4.9 ± 0.32
protein stability index (treatment: MLN4924 1 uM, 8 h): 4.99 ± 0.13

KIWLVVPSLLELAWEKLLAAFPNL [KLHDC10]
protein stability index (treatment: DMSO): 2.84 ± 0.16
protein stability index (treatment: MLN4924 1 uM, 8 h): 2.73 ± 0.11

NLPIIAKMAAVSKASGRFGLLQGT [SEPHS2]
protein stability index (treatment: DMSO): 2.31 ± 0.18
protein stability index (treatment: MLN4924 1 uM, 8 h): 2.25 ± 0.2

TSCAGNLPSRPPPLLSPLLASRNP [RSPH3]
protein stability index (treatment: DMSO): 3.45 ± 0.22
protein stability index (treatment: MLN4924 1 uM, 8 h): 3.61 ± 0.32

VLYPDGQAQMIHPKPADFRNPGPG [INTS4]
protein stability index (treatment: DMSO): 3.59 ± 0.098
protein stability index (treatment: MLN4924 1 uM, 8 h): 3.67 ± 0.3

PTMHLESPALQVMGPAQEAPVAEA [ZNF449]
protein stability index (treatment: DMSO): 5.22 ± 0.17
protein stability index (treatment: MLN4924 1 uM, 8 h): 5.21 ± 0.07

NMCGYHSQDRYEFSSHITRGEHRF [IKZF1]
protein stability index (treatment: DMSO): 2.47 ± 0.24
protein stability index (treatment: MLN4924 1 uM, 8 h): 2.55 ± 0.65

TCGGGVQFSSRDCTRPVPRNGGKY [ADAMTS4]
protein stability index (treatment: DMSO): 4.19 ± 0.33
protein stability index (treatment: MLN4924 1 uM, 8 h): 3.94 ± 0.65

ILESSQTLLSVLKREAGNLTKATA [SSNA1]
protein stability index (treatment: DMSO): 2.69 ± 0.46
protein stability index (treatment: MLN4924 1 uM, 8 h): 2.99 ± 0.29

PQKSLFFHHIPSTCQRVNGIKVQN [SLC19A2]
protein stability index (treatment: DMSO): 2.61 ± 0.17
protein stability index (treatment: MLN4924 1 uM, 8 h): 2.78 ± 0.27

AEDWFFSKTEELNREVATNSELVQ [KRT17]
protein stability index (treatment: DMSO): 4.87 ± 0.2
protein stability index (treatment: MLN4924 1 uM, 8 h): 4.84 ± 0.07

GHGADVLCLDLAPSETGNTFVSGG [GNB5]
protein stability index (treatment: DMSO): 4.24 ± 0.084
protein stability index (treatment: MLN4924 1 uM, 8 h): 4.33 ± 0.4

RPATEAELLTCHSAEYVGHLRATE [HDAC6]
protein stability index (treatment: DMSO): 4.1 ± 0.2
protein stability index (treatment: MLN4924 1 uM, 8 h): 3.85 ± 0.19

EHPPEVSRETQRTPMNHQKAVNDE [FBXO34]
protein stability index (treatment: DMSO): 5.29 ± 0.21
protein stability index (treatment: MLN4924 1 uM, 8 h): 5.41 ± 0.075

QPPTTTVARSGTPAVENKQQIGDA [PLK2]
protein stability index (treatment: DMSO): 5.4 ± 0.16
protein stability index (treatment: MLN4924 1 uM, 8 h): 5.37 ± 0.37

QPPPPRRVTNVGSLLLTPQENESL [WASL]
protein stability index (treatment: DMSO): 4.73 ± 0.083
protein stability index (treatment: MLN4924 1 uM, 8 h): 4.66 ± 0.27

DGSGMPKTMQSEETRVWHRRDGKW [CAMK2D]
protein stability index (treatment: DMSO): 4.49 ± 0.35
protein stability index (treatment: MLN4924 1 uM, 8 h): 4.59 ± 0.095
